Here are results for one molecule from patent US20160272937A1, “METHODS OF GENERATING INTERMEDIATE MESODERM CELLS FROM HUMAN PLURIPOTENT STEM CELLS” (THE BRIGHAM AND WOMEN'S HOSPITAL, INC., priority 2013, published 2016).

Common to all, as to type: cell-based, human
Test [1] concerns CHIR-induced hPSCs. Description: Growth factor screen for PAX2 induction in CHIR-induced mesendodermal cells (immunostaining). As to conditions: CHIR 24 hours then increasing doses of factor, day 4. As to the method: For immunofluorescence studies, cultures are washed once with PBS (Invitrogen) and fixed in 4% paraformaldehyde for 15 min at room temperature (RT). Fixed cells are then washed three times in PBS and incubated in blocking buffer (0.3% Triton X-100 (Fisher Scientific) and 5% normal donkey serum (EMD Millipore) in PBS) for 1 hour at RT.
The cells are then incubated with primary antibody overnight at 4° C. or for 2 hours at RT in antibody dilution buffer (0.3% Triton X-100 and 1% BSA (Roche) in PBS). Cells are then washed three times in PBS and incubated with Alexa Fluor 488-, 555-, or 647-conjugated secondary antibodies (1:500) (Molecular Probes) in antibody dilution buffer for 1 hour at RT. For immunostaining with Biotinylated Lotus Tetragonolobus Lectin (LTL, Vector Labs), a Streptavidin/Biotin Blocking Kit (Vector Labs) and Alexa Fluor 488- or 647-conjugated Streptavidin (Molecular Probes) were used according to manufacturer's instructions.
Nuclei can be counterstained with DAPI (Sigma). […] Immunofluorescence is visualized using an inverted fluorescence microscope (Nikon Eclipse Ti, Tokyo, Japan). Quantification is performed by counting a minimum of five random fields at 10× magnification.
PAX2 is selected since it is an early marker of IM, and, unlike the markers OSR1 or LHX1 which are also expressed in the adjacent lateral plate mesoderm, PAX2 expression is restricted in mesoderm to the IM.

Test [2] concerns CHIR-induced hPSCs. Briefly: Definitive endoderm differentiation of CHIR-induced hPSCs (SOX17/FOXA2 immunostaining). As to the method: Mesendoderm differentiation—the media is changed to Advanced RPMI (A-RPMI, Invitrogen) supplemented with 1×L-glutamax and 1× penicillin/streptomycin and either CHIR99021 (CHIR, Stemgent), human Wnt3a (R&D systems), and/or human activin A (R&D systems) at the doses described. […] Hepatic differentiation—cells at the definitive endoderm stage are treated with A-RPMI+1×L-glu+1×P/S+1×B27 supplement (Invitrogen)+20 ng/mL BMP-4 (R&D systems)+10 ng/mL FGF2 (Invitrogen) for 5 days, then A-RPMI+1×L-glu+1×P/S+1×B27+10 ng/mL HGF for 5 days, then HCM Hepatocyte Culture Medium (Lonza) supplemented with 20 ng/mL Oncostatin M and 10 ng/mL HGF (Peprotech) for 5 days. Pancreatic differentiation—cells at the definitive endoderm stage are treated with DMEM/F12+2% FBS (Hyclone)+50 ng/mL FGF7 (R&D systems) for 2 days, then high-glucose DMEM (Mediatech)+1% B27+2 μM retinoic acid (Sigma)+0.25 μM KAAD cyclopamine (EMD Millipore)+100 ng/mL recombinant human Noggin (R&D systems) for 4 days, then high-glucose DMEM+1% B27+100 ng/mL Noggin+300 nM indolactam V (Stemgent)+1 μM ALK5 inhibitor II (Axxora) for 4 days. […]
Nuclei can be counterstained with DAPI (Sigma). […] Immunofluorescence is visualized using an inverted fluorescence microscope (Nikon Eclipse Ti, Tokyo, Japan). Quantification is performed by counting a minimum of five random fields at 10× magnification. […]

Test [3] has as its system hPSC-derived PAX2+LHX1+ cells. Briefly: SIX2 induction in PAX2+LHX1+ cells (cap mesenchyme differentiation, immunofluorescence). The following applies: activin A 10 ng/ml added on day 3, 5 additional days.

B1: activin A: human activin A (R&D systems) (protein, UniProt P08476 311-426, looked up)
Inhibin beta A chain: GLECDGKVNICCKKQFFVSFKDIGWNDWIIAPSGYHANYCEGECPSHIAGTSGSSLSFHSTVINHYRMRGHSPFANLKSCCVPTKLRPMSMLYYDDGQNIIKKDIQNMIVEECGCS
modifications: Inhibin beta A chain
Consider B1, for which, in the test on CHIR-induced hPSCs [1], the PAX2 expression entry was “no PAX2 expression”. Besides, the “number of SOX17+ cells” value with CHIR-induced hPSCs [2] (activin A added after 48 hours of CHIR treatment, 4 days of differentiation) is “markedly reduced”. In the test on CHIR-induced hPSCs [2] (high doses of activin A after 24 hours of CHIR treatment, 2-3 days of subsequent differentiation), the “efficiency of SOX17+FOXA2+ definitive endoderm generation” value is on record as “greater than 95%”. The “SIX2+ cells by immunofluorescence” value in test [3] was “small populations of SIX2+ cells”.
